Experimental data taken from the DeepSol protein solubility set.

Test: soluble on expression in E. coli; label from the status in PepcDB or PDB records

Row | Sequence | soluble on expression in E. coli
1 | MDISTNKANYKPAVSQAFDGQETQDGTNILILGSDQRVTQGSTDARTDTIMVVNVGNHAKKIKMVSFMRDTLINIPGYSYNDNSYDLKLNSAFNLGEQEDHHGAEYVRRALKHNFDIDIKYYVMVDFETFAEAIDTLFPNGVKIDAKFATVGGVAVDSVEVPDDLRMKNGVVPNQTIEVGEQRMDGRTLLNYARFRKDDEGDFGRTVRQQQVMSAVMSQIKDPTKLFTGSAAIGKIYALTSTNVSFPFVVKNGVSVLGSGKNGVEHVTIPENGDWVDEYDMYGGQALYIDFDKYQKTLAKLGLRLEHHHHHH | soluble
2 | MDKFRVQGRTRLSGEVTISGAKNAALPILFAALLAEEPVELQNVPKLKDIDTTIKLLSQLGTKIERNNGSVFVDASAVNEFCAPYDLVKTMRASIWALGPLVARFGQGQVSLPGGCAIGARPVDLHITGLEQLGAEIKLEEGYVKASVNGRLKGAHIVMDKVSVGATVTIMSAATLAEGTTVIENAAREPEIVDTANFLNTLGAKISGAGTDRITIEGVTRLGGGVYRVLPDRIETGTFLVAAAISGGKVVCRQTRPDTLDAVLAKLREAGADIEVGDDWISLDMQGKRPKAITFRTAPHPGFPTDMQAQFSLLNLVAEGTGVITETIFENRFMHVPELIRMGAHAEIESNTVICYGVEQLSGAQVMATDLRASASLVLAGCIAEGVTIVDRIYHIDRGYERIEDKLRALGAKIERVKGE | not soluble
3 | MDKKELFDALDDFSQQLLVTLADVEAIKKNLKSLVEENTALRLENSKLRERLGEVEADAPVKAKHVRESVRRIYRDGFHVCNDFYGQRREQDEECMFCDELLYRE | not soluble
4 | MDKKELVEKIALNTLVFETLGQPEKEREFTIQDLRRWGFDLILGKKNGVRTFFASQAGREVGDKWEEGGATYEIEEILLELPENKKLFAHIETSEGVAYIVAELREGKENLEILRTPAPTLLMAFFKKHRLHELANNLKSVGVITEFYKQRGRESLPLPYKKLPLVARDFLERAKKVEKMAGFGRVALAYFGKTREKDNRFRVSWLLPTIALFDIDISEKANTALEEFK | soluble
5 | MDKKILVVDDEKPIADILEFNLRKEGYEVHCAHDGNEAVEMVEELQPDLILLDIMLPNKDGVEVCREVRKKYDMPIIMLTAKDSEIDKVIGLEIGADDYVTKPFSTRELLARVKANLRRQ | soluble
6 | MDKKTIYFICTGNSCRSQMAEGWGKEILGEGWNVYSAGIETHGVNPKAIEAMKEVDIDISNQTSDLIDNDILKQSDLVVTLCSDADNNCPILPPNVKKEHWGFDDPAGKEWSEFQRVRDEIKLAIEKFKLR | soluble
7 | MDKLKFGLVSLGCDKNRVDSEIILGSMNRDYEIVNDPREADVILVNTCGFIESAKQESINTILEMNKYKEKYNCKMLIATGCLTQRYGKELKELVPEIDAILGVNDYKSLDDAIEDFFNLGKKDIYCNYSDQSINEGKRIITTGEYSSYVRISEGCNNSCSYCIIPKIRGKYRSRQFENIIDEVRELSENGTKEVILIAQDTTRYGVDLYGRKRLHELLKEMSLIQGIEWIRIMYCYPEEITEELIEEIASNEKVCNYIDMPIQHISDNILKNMFRKTRKSEILDKVEKIRKKVPNIAIRTSLIVGFPGETEGDFNELCDFVKDANINNLGVFRYSREEGTKAALMPMQIADTVKEKREEDIMLIQQQVSKNLNAKKIGKVYKVIVEGFNGDYWYGRNFEMAPEIDGKVFFKSQSEIKVGSFINIKITENLEYDLIGVVYNEFSKLEHHHHHH | soluble
8 | MDKNINISVKVWRQKGPKEKGHFETYQLQNISQSASFLEMMDILNEQLIKEHKAPVVFDHDCREGICGMCSLYINGHPHGPDDSITTCQLHMRRFDDGDTITIEPWRSAGFPVIRDLMVDRSAYDKIIQSGGFVSVNTGGIPDANAIPISKKNADEAMDAAACIGCGACAAACKNGSAMLFVSAKVSQLALLPQGRIEAARRAKAMVAKMDELGFGNCTNTRACEMECPKNVSISHIARLNREYIVAKNRD | not soluble
9 | MDKPILKDSMKLFEALGTIKSRSMFGGFGLFADETMFALVVNNQLHIRADQQTSSDFETQGLKPYVYKKRGFPVVTKYYAISSELWESSDRLIEVAKKSLENAKLEKEQQASTKPNRLKDLPNLRLATERMLKKAGIDSVAQLEEEGALSAYKAIRDTHSTTVSLELLWALEGAINGTHWSVVPQSRREELMNGLS | soluble
10 | MDLDKLVHQPTRLELFAYLYRHGESSFGDLTDELDLTEGNLSSHLQRMEDADAVEVRKEFVDKRPHTTAVLTEDGEAMFEDHVQTLQGLIDGLELEHHHHHH | not soluble
11 | MDLEISEKIKAYRQVMSAKSPSDAALTWNLFDLPNNMELARFFSTLSKEEMAKFEQCVFVDGQDPKTYIKMHKMVESTATIALSEEIENKRTILVAEPNRGGVSGHEGEMASTSSGFRDGYHPCMDHTSYAEGLFTESEKAWELERLLKLQKEIAEAKSKIVKQKKPSIKSA | not soluble
12 | MDLIAPEDVVVTLSHAGYAKRQPVSAYRAQRRGGRGRSAASTKEEDFIDQLWLVNTHDTLLTFTSSGKVFWLPVHQLPEAGSNARGRPIINWIPLESGERVQAVLPVREYADNRYVFMATRNGTVKKTPLSEFAFRLARGKIAINLDEGDALVGVALTDGDRDVLLFASNGKTVRFGESTVRSMGRTATGVRGIRLAKGEEVVSLIVSERAGGVEDEVEDESAEEVVETTDGAEPAVIDVADNGDVAYILTATENGYGKRTPLAEYPRKGRGTQGVIGIQTTERNGKLVRAVLLGSTDEVMLISDGGTLVRTRGSEISRVGRNTQGVTLIRLSKGEKLQAVERLDASLEEPEDVVDEAVAITSDAPPAEG | soluble
13 | MDLVKDVKRELSFSELKGKRVSIDGYNALYQFLAAIRQPDGTPLMDSQGRVTSHLSGLFYRTINILEEGVIPIYVFDGKPPEQKSEELERRRKAKEEAERKLERAKSEGKIEELRKYSQAILRLSNIMVEESKKLLRAMGIPIVQAPSEGEAEAAYLNKLGLSWAAASQDYDAILFGAKRLVRNLTITGKRKLPNKDVYVEIKPELIETEILLKKLGITREQLIDIGILIGTDYNPDGIRGIGPERALKIIKKYGKIEKAMEYGEISKKDINFNIDEIRGLFLNPQVVKPEEALDLNEPNGEDIINILVYEHNFSEERVKNGIERLTKAIKEAKGASRQTGLDRWF | soluble
14 | MDMKHTLLEALGIEIVENTAERCVAVMPVDHRTVQPFGYLHGGASVALAETAARPGAQNLIDHTTQACVGLEINANHLKSVKEGTVKAIAEPVHIGRTTIVYHIHIYDEQERLICISRCTLAVIKKLEHHHHHH | soluble
15 | MDMYSMKISEGVERIDGVTANSYLLTLDGKNILIDTGTAGGGKKIIDYFNKNGTKPDYVIVTHHHADHVGGLKEISERFNPEIYVPDLEMKIIRGEEDPPKPRSFFGRMITGMLKFEPVKDVKPVSKASIPGIEEMATPGHTIGSTSYIVEDLHILFSGDAAVESGGELKINKSFSYEINSAERSLEIIKGMKGYLVLPGHGDKVQLLEHHHHHH | soluble
16 | MDNPCPTCGQELEWTGQYHCSACTVDYCKVGFCPECGSELEKLQACGAANYFCNQCNELKSKSKIRFVFQPLNGNSQLEHHHHHH | soluble
17 | MDNPEPARIVRLMEHRADIAIVGGGLNGPALALALAQSGQSVVLVDALPDPLRTDAEFDGRAYALALASQRLLAAVGVWDHVAEAAQPMLEIKVSDGHAGAGPSPFFLHFDHAEIEEGPMGYMVEDRYLRRALLAAMEDAPRITRLNGAAVTAQQTDGTGVVLTLADGSHLRAGLVVGCDGRKSGTATRAGIKRTGWDYGQTALVCAIAHERPHHGIAHQFFMPPGPLAILPLPGNRSSIVWSERTEAAARINALPEAEYLEILRPRFGDFLGEIRLEGARFTYPLNLTVANAFVAERLALVGDAAHGMHPIAGQGLNAGLRDVGALAEVLILAARRGEDIGAAPVLERYQQWRRFDTATLALATDAFNRLFSNDNPLLRLGRDVGMGVIGAFPGLRRGFVREATGLTGDLPKLMQGRAILEHHHHHH | not soluble
18 | MDPARECEGKGACELKSNKRFADKIMPHLLNLYGSSAKANDFDMYAPNASFEDPLTHAQGVKQIKSAFYSLPKVFGESKIVEYHIQESETSPGKKEILIDNKQHYKIMGRNIDMISLIKLYVEDGKIVRHEDWWDKKPLRNRDTVSFPLVGRVMEMGRRGLMLATHAMMGFGKDPDSQ | soluble
